Source: US20220016257A1 (Daiichi Sankyo, published 2022)

Experiments:
[1] = biological target: T1, human CDH6 (full-length, on cells) (human, UniProt P55285 54-790); test: competition flow cytometry on 786-O/hCDH6 cells, unlabeled antibody varied, competitor Alexa488-labeled NOV0712 at 5 nM [upper panel]
T1 construct: also called hCDH6; full-length hCDH6
T1 sequence: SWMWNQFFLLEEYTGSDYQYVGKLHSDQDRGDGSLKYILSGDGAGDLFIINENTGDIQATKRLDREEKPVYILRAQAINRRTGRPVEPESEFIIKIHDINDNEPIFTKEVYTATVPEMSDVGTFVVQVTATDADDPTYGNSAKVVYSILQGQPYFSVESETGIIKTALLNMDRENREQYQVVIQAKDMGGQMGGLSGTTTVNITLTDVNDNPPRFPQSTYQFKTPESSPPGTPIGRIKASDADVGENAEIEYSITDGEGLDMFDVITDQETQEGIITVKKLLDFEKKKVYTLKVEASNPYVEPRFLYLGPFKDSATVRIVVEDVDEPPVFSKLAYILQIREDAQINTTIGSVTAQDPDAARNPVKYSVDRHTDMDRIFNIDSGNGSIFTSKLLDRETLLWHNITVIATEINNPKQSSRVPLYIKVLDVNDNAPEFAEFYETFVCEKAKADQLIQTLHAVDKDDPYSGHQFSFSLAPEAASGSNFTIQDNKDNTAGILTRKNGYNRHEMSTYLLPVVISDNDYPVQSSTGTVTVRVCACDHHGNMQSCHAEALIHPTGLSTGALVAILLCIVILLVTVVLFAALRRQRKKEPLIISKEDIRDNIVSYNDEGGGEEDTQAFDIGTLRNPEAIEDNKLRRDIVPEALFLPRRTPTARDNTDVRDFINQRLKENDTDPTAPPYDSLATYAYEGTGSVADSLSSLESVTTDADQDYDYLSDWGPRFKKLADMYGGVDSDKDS
Procedure: The cell suspension of the 786-O/hCDH6 stably expressing cell line produced in 6)-2-2-1 was centrifuged, and the supernatant was then removed. Thereafter, the cells were suspended by the addition of labeled NOV0712 or labeled H01L02 (final concentration: 5 nM) and, further, the addition of each of the 4 humanized hG019 antibodies (clone Nos: H01L02, H02L02, H02L03 and H04L02), which had been prepared in Example 5)-5-3, or the anti-CDH6 antibody NOV0712, which had been prepared in Reference Example 1, or human IgG1 (Calbiochem) as a negative control (final concentration: as shown in the abscissa of FIG. 7). The cells were left standing at 4° C. for 1 hour. Thereafter, the cells were washed twice with PBS supplemented with 5% FBS, followed by detection using a flow cytometer (Canto II; BD Biosciences). The data was analyzed using FlowJo (TreeStar, Inc.). The abscissa depicts the final concentration of the added unlabeled antibody, and the ordinate depicts the amount of the antibody bound based on mean fluorescence intensity. When unlabeled NOV0712 is added to cells supplemented with labeled NOV0712, the amount of the labeled antibody bound is decreased by replacement with the unlabeled antibody in an addition concentration-dependent manner because they compete with each other for binding to the same epitope. […]

[2] = biological target: T2, EC5-deleted human CDH6 (EC5 deletion mutant, on cells) (human, UniProt P55285 54-790); test: flow cytometry, 293α cells transiently expressing EC5-deleted hCDH6 (open) against untransfected cells (shaded), APC anti-human IgG F(ab')2
T2 construct: Full-length human CDH6 lacking EC5; Cloned in p3xFLAG-CMV-9; also called EC5-deleted hCDH6
T2 sequence: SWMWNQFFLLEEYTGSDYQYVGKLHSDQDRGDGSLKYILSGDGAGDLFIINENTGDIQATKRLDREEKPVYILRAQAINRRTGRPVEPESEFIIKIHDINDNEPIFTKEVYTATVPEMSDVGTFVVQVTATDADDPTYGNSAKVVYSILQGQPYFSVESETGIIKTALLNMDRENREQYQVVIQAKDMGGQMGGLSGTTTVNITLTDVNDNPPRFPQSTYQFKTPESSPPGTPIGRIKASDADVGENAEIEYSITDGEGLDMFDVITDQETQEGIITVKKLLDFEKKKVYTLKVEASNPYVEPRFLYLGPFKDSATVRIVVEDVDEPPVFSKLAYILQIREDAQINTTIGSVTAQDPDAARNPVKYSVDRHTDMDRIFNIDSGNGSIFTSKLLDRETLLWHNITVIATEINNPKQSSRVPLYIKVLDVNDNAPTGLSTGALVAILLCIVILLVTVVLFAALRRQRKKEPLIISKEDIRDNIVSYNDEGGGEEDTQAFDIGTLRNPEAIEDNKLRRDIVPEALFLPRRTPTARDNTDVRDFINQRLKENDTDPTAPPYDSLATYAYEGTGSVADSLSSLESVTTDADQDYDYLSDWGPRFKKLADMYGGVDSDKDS
Procedure: Thereafter, the cells were suspended by the addition of each of the 4 humanized hG019 antibodies (clone Nos: H01L02, H02L02, H02L03 and H04L02), which had been prepared in Example 5)-5-3, or the anti-CDH6 antibody NOV0712, which had been prepared in Reference Example 1, or human IgG1 (Calbiochem) as a negative control. The cells were left standing at 4° C. for 1 hour. The cells were washed twice with PBS supplemented with 5% FBS, and then suspended by the addition of APC-anti-human IgG goat F(ab′)2 (Jackson ImmunoResearch Laboratories, Inc.) that had been 500-fold diluted with PBS supplemented with 5% FBS. The cells were left standing at 4° C. for 1 hour. The cells were washed twice with PBS supplemented with 5% FBS, followed by detection using a flow cytometer (Canto II; BD Biosciences). The data was analyzed using FlowJo (TreeStar, Inc.). In the histograms of FIGS. 5-1 to 5-6, the abscissa depicts APC fluorescence intensity indicating the amount of the antibody bound, and the ordinate depicts cell count. […] Fluorescence intensity is enhanced when the antibody binds to full-length hCDH6 or each EC domain deletion mutant on the cell surface. The human IgG1 control binds to none of the transfected cells.

IC50 (read off the curve) [1]: ~4 nM
binding result [2]: no binding (tested: not given)
B1: anti-CDH6 antibody NOV0712 (antibody, V domains shown)
VH: QVQLLESGGGLVQPGGSLRLSCAASGFTFSSHGMHWVRQAPGKGLEWVSVISGSGSNTGYADSVKGRFTISRDNSKNTLYLQMNSLRAEDTAVYYCARQWGSYAFDSWGQGTLVTVSS
VL: DIQMTQSPSSLSASVGDRVTITCRASQSISSYLNWYQQKPGKAPKLLIYAVSTLQSGVPSRFSGSGSGTDFTLTISSLQPEDFATYYCQQSGTFPPTTFGQGTKVEIKR
